Measurements: patent US7135319 (Pfizer, dated 2006)

Target: T1, B. subtilis Acyl Carrier Protein Synthase (ACPS), holo-[acyl carrier protein] synthase (B. subtilis, UniProt P96618 3-121, limits assumed)
T1 construct: A trimer of ACPS was the molecular replacement probe; three ACPS molecules per asymmetric unit; also called A1; B1
T1 sequence: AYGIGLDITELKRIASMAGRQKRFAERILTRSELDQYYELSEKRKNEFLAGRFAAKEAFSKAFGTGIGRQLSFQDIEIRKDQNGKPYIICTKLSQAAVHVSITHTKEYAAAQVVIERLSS
Assay: gel filtration of the mixed proteins, complex purified and crystallized
Experimental: Crystallization of ACPS with ACP Purified ACP and ACPS were mixed at a 1:1.1 molar ratio and the mixture was loaded onto a gel filtration column. The resulting purified complex was dialyzed against a solution containing 50 mM Bis-Tris pH 6.4, 100 mM NaCl, 10 mM MgCl_2, and 10 mM DTT before concentrating the complex to ~10 mg/mL. Crystallization conditions for the ACP/ACPS complex were also determined using the sparse matrix screens available from both Hampton Research and Emerald Biostructures. Screens were set up with 2 μL drops at both 18° C. and 4° C. Optimization of a crystalline hit (0.2M Potassium Formate, 20% PEG 3350) gave diffraction quality rod shaped crystals. Crystals could be obtained between 0.15M and 0.3M Potassium Formate and between 15 and 23% PEG 3350. The rate of growth seriously affected the quality of crystals with the optimal crystals being formed between 8 and 12 days after setup. The crystals were grown with a 1:2 drop ratio of protein to well solution at 18° C. These crystals belonged to space group C222_1 with unit cell parameters a=78.46, b=122.03, c=136.77 Å and contained three molecules of ACPS and three molecules of ACP in the asymmetric unit.

B1: B. subtilis Acyl Carrier Protein (ACP), holo form (other)
chain: GPLGSADTLERVTKIIVDRLGVDEADVKLEASFKEDLGADSLDVVELVMELEDEFDMEISDEDAEKIATVGDAVNYIQNQQ
modifications: phosphopantetheinyl group attached to the O-gamma of Ser-36
notes: also called holo-ACP; AP1
binding result: binds
